# Substitutions are numbered along the chain they refer to.
# B1: anti-BCMA-AB1-Compound 50 (antibody, human IgG1, V domains shown)
# VH: EVQLVESGGGLVKPGGSLRLSCAASGFTSSTAWMSWVRQAPGKGLEWVGRIKSKSDGGTTDYAAPVKGRFTISRDDSKNTLFLQMNSLKTEDTAVYYCAKGGGTYGYWGQGTTVTVSS
# VL: QSVLTQPASVSGSPGQSVTISCTGTSSAHGGHYYVSWYQQHPGKAPKLMIYDVSNRPSGVSNRFSGSKSGNTASLTISGLQAEDEADYYCGSYTSSGSYVFGTGTKLTVL
# modifications: drug-linker Compound 50 on antibody cysteine thiols (C-lock linkage; positions not stated)
# B2: anti-BCMA-AB1-Compound 3 (antibody, human IgG1, V domains shown)
# VH: B1 VH
# VL: B1 VL
# modifications: drug-linker Compound 3 on antibody cysteine thiols (C-lock conjugation; positions not stated)
# B3: BCMA-AB1-8 (conjugate)
# VH: B1 VH
# VL: B1 VL
# B4: BCMA-AB1-1: Compound 1 conjugated with anti-BCMA antibody clone BCA7-2C5 (AB1); DAR 3.8 (conjugate)
# VH: B1 VH
# VL: B1 VL
# B5: anti-BCMA-AB1-Compound 53 (antibody, human IgG1, V domains shown)
# VH: B1 VH
# VL: B1 VL
# modifications: drug-linker Compound 53 conjugated to the antibody (PFP linkage; residues not stated)
# B6: BCMA-AB1-2: Compound 2 conjugated with anti-BCMA antibody clone BCA7-2C5 (AB1); DAR 3.4 (conjugate)
# VH: B1 VH
# VL: B1 VL
# B7: ADC-53 (conjugate)
# VH: B1 VH
# VL: B1 VL
# B8: ADC-52 (conjugate)
# VH: B1 VH
# VL: B1 VL
# B9: ADC-51 (conjugate)
# VH: B1 VH
# VL: B1 VL
# B10: anti-BCMA-AB1-Compound 51 (antibody, human IgG1, V domains shown)
# VH: B1 VH
# VL: B1 VL
# modifications: drug-linker Compound 51 on antibody cysteine thiols (C-lock linkage; positions not stated)
# B11: BCMA-AB2-3: Compound 3 conjugated with anti-BCMA antibody clone BCA7-2E1 (AB2) (conjugate)
# VH: B1 VH
# VL: B1 VL with V3A, A28D, H29G, Y33T, G59W
# B12: anti-BCMA-AB1-Compound 52 (antibody, human IgG1, V domains shown)
# VH: B1 VH
# VL: B1 VL
# modifications: drug-linker Compound 52 on antibody cysteine thiols (C-lock linkage; positions not stated)
# Assays:
# [1] = biological target: T1, Human BCMA (B Cell Maturation Antigen) (human, UniProt Q02223 1-184); assay: cell-based or functional assay
# T1 sequence: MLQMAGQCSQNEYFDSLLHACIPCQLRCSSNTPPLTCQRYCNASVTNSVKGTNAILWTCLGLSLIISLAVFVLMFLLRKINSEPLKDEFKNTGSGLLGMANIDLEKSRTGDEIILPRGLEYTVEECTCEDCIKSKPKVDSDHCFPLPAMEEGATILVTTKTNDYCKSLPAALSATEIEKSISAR
# [2] = biological target: T1, Human BCMA (B Cell Maturation Antigen); assay: cell-based or functional assay; remark: listed apart in the source
# [3] = biological target: T1, Human BCMA (B Cell Maturation Antigen); assay: cell-based or functional assay; remark: listed apart in the source
# NCI-H929 (BCMA+) cells = assay: In vitro cell viability assay (Cell Titer-Glo 2.0), Example B1; assay type: cell-based, human; conditions: 4-day assays, FIG. 2A
# Experimental: (§1) The in vitro efficacies of ADCs anti-BCMA-Compound 1, anti-BCMA-Compound 2, anti-BCMA-Compound 3, anti-BCMA-Compound 4, anti-BCMA-Compound 5, anti-BCMA-Compound 6, anti-BCMA-Compound 7, and anti-BCMA-Compound 8, were evaluated using the following human cancer cell lines: K562, MM.1R and NCI-H929, purchased from the American Type Culture Collection (ATCC; Manassas, VA). The cells were cultured in RPMI-1640 medium (Gibco ThermoFisher; Waltham, MA) supplemented with 10% heat-inactivated fetal bovine serum (FBS: Corning; Corning, NY, USA) and 1× penicillin-streptomycin (Corning) and maintained at 37° C. in a 5% CO2 humidified environment.
# (§2) The in vitro assays were performed as follows: Tumor cells were harvested by centrifugation at 300 g for 5 minutes and plated into 96-well clear bottom white-walled plates (5,000 to 10,000 cells/well in 50 μL complete medium) and maintained at 37° C. Cells were then treated in duplicate with 50 μL of test articles prepared at 2× final concentration that were serially diluted in complete medium and incubated at 37° C. for up to 120 hrs. After treatment, inhibition of cancer cell growth was determined using the Cell Titer-Glo® 2.0 Cell Viability Assay (Promega; Madison, WI, USA) as described by the manufacturers' protocol. Luminescence was measured using a Perkin-Elmer Envision 2104 Microplate Reader (Waltham, MA).
# (§3) Data were normalized to non-treated controls using Microsoft Excel (Redmond, WA, USA) and analyzed using GraphPad Prism software (version 8; La Jolla, CA, USA). Half-maximal effective concentrations (EC50) were derived from dose response curves were generated using non-linear regression analysis fit to a 4-parameter logistic equation.
# K562 (BCMA −) cells = assay: as above; assay type: cell-based, human; conditions: Table 4; 5-day assays; AB1 clone; read-out: EC50 Values, Cell Line K562
# Experimental: as §1, §2, §3
# BCMA-positive NCI-H929 = assay: In vitro cytotoxicity assay (CellTiter-Glo 2.0, 384-well), Example B2; assay type: cell-based, human; conditions: for effect on NCI-H929 cell viability: 5-day assays, FIG. 8; for EC50 order of magnitude: comparison of linker chemistry among C-lock conjugations
# Experimental: (§4) The in vitro efficacies of ADCs anti-BCMA-Compound 50, anti-BCMA-Compound 51, anti-BCMA-Compound 52, and anti-BCMA-Compound 53, were compared to anti-BCMA-Compound 3. Anti-BCMA-AB1 clone was conjugated with compounds 50, 51, 52, 53 or 3 and the ADCs were evaluated using the following human cancer cell lines: BCMA-negative K562 and BCMA-positive NCI-H929, purchased from the American Type Culture Collection (ATCC; Manassas, VA).
# (§5) Cell Culture Method: The cell lines were cultured in RPMI-1640 medium (Catalog #10-041-CV: Corning) supplemented with 10-20% fetal bovine serum (FBS; Catalog #MT35011CV; Corning) and 1× penicillin-streptomycin (Catalog #30-002-Cl, Corning) and maintained at 37° C. in a 5% C02 humidified environment. Viable cell counts were made by Trypan blue exclusion using a Countess or Countess II automated cell counter.
# (§6) The in vitro assays were performed as follows: All cells were harvested by removal of a portion of the cell culture suspension followed by centrifugation at 300 g for 5 minutes, followed by resuspension in cell culture medium (described above in Cell Culture method), viable cell count (as described above in Cell Culture method), and then seeded into 384-well white wall clear bottom plates (Catalog #3765, Corning) at a density of 2,500 cells/well in growth media. Plates were maintained at 37° C. The outer wells of plates contained medium only and were used for background subtraction for the cell viability assay. Working solutions of test articles were prepared at 2× final concentrations with 5-fold serial dilutions in complete growth medium. Cell treatment was performed in either technical triplicates or duplicates and maintained at 37° C. for 120-hour assay. After treatment, cell viability was determined by CellTiter-Glo 2.0 assay (Catalog #G9243; Promega; Madison, WI, USA) based on the manufacturer's instructions. CellTiter Glo reagent reacts with ATP in metabolically active cells to give a luminescent readout that is directly proportional to the number of viable cells. Briefly, plates were removed from the incubator and equilibrated to room temperature before addition of CellTiter Glo reagent. Luminescence was measured using a Tecan Spark microplate reader (Tecan; Mannedorf, Switzerland).
# (§7) Data Analysis: For Cytotoxicity assays, raw luminescence data was background subtracted with average luminescence from the outer wells containing medium only and normalized to untreated controls using Excel (Microsoft; Albuquerque, NM). Dose-response relationships and EC50 values were determined based on non-linear regression analysis of normalized data fit to a four-parameter logistic equation using GraphPad Prism 8.0.
# BCMA-negative K562 = assay: as above; assay type: cell-based, human; conditions: 5-day assays, FIG. 8
# Experimental: as §4, §5, §6, §7
# NCI-H929 tumor xenograft = assay: In vivo efficacy, NCI-H929 tumor xenograft in SCID beige mice; design: species or system CB17 SCID beige mice; conditions: Experiment IV, FIG. 6
# Experimental: Female CB17 SCID beige mice, 6 weeks of age, were purchased from Charles River Laboratories.
# Human multiple myeloma tumor cell lines NCI-H929 and OPM2 were cultured and expanded in RPMI 1640 medium supplemented with 10% FBS, 100 units/ml of penicillin and 100 μg/ml of streptomycin at 37° C. in a 5% CO2 humidified environment for a period of 2-3 weeks before harvesting for implantation. Cell viability determined by Trypan blue dye exclusion assay was >90% before implantation. 5 million of OPM2 or NCI-H929 cells in 100 μl of PBS—Matrigel 1:1 (v/v) mixture were inoculated to the right upper flank of each mouse by s.c. injection.
# Tumor volume measurement was started at day 14 after tumor cell inoculation and performed twice weekly. The longest longitudinal diameter as length and the widest transverse diameter as width were measured by using a digital caliper. Tumor volume (TV) were then calculated by the formula: TV=[length×(width)^2]/2 and were analyzed in Excel.
# The treatment was started when average tumor size reaches ˜400, 200 and 150 mm^3 for NCI-H929 tumor xenografts in Experiment I, III and IV, respectively, or ˜240 mm^3 for OPM2 tumor xenograft in Experiment I.
# Mice were euthanized when tumor size reached 2000 mm^3.
# After tumor-bearing mice were randomized, anti-BCMA antibody (BCMA-AB1 or BCMA-AB2), anti-BCMA antibody conjugate with Compound 3 (BCMA-AB1-3 or BCMA-AB2-3) or iso-type antibody conjugate with Compound 3 (iso-3) diluted in PBS were administered to mice through i.p. injections. Treatment regimens included 8 mg/kg once, 4 mg/kg Q1W×2 and 2 mg/kg biw×4 of anti-BCMA-AB1 or anti-BCMA-AB1-Compound 3 in Experiment I (FIG. 3); 2 mg/kg biw×4 and 0.67 mg/kg biw×4 of anti-BCMA-AB1 or anti-BCMA-AB1-Compound 3 in Experiment II (FIG. 4); 1, 2, 4, and 8 mg/kg once of anti-BCMA-AB1-Compound 3 or iso-3 in Experiment III (FIG. 5); and 4 mg/kg biw×4 of anti-BCMA-AB2 or 2 and 4 mg/kg biw×4 of anti-BCMA-AB2-Compound 3 in Experiment IV (FIG. 6).
# Raw data of tumor measurements were analyzed in Excel. Tumor growth curves were plotted using GraphPad Prism 8.0 software and values were presented as mean t SEM.
molecule,measurement,setting,value
B1,"EC50 of cell viability (CellTiter-Glo 2.0), NCI-H929 (BCMA-positive) cells, 120-hour assay",[1],0.762 nM
B2,"EC50 of cell viability (Cell Titer-Glo), MM.1R (BCMA+) cells, 4-day assay",[2],10 nM
same,"EC50 of cell viability (Cell Titer-Glo), NCI-H929 (BCMA+) cells, 4-day assay",[2],2.21 nM
same,"EC50 of cell viability (CellTiter-Glo 2.0), NCI-H929 (BCMA-positive) cells, 120-hour assay",[1],0.368 nM
same,"EC50 of cell viability (Cell Titer-Glo), MM.1R (BCMA+) cells, 5-day assay",[3],2.28 nM
same,"EC50 of cell viability (Cell Titer-Glo), NCI-H929 (BCMA+) cells, 5-day assay",[3],0.699 nM
B3,cell killing of NCI-H929,NCI-H929 (BCMA+) cells,"comparable activity to the Gly2 peptide linker ADC, anti-BCMA-AB1-7"
B4,EC50,K562 (BCMA −) cells,> 100 nM
B5,"EC50 of cell viability (CellTiter-Glo 2.0), NCI-H929 (BCMA-positive) cells, 120-hour assay",[1],0.398 nM
B6,EC50,K562 (BCMA −) cells,> 100 nM
B7,effect on NCI-H929 cell viability,BCMA-positive NCI-H929,dose-dependently reduced
same,activity against K562 cells,BCMA-negative K562,did not show activity
B8,effect on NCI-H929 cell viability,BCMA-positive NCI-H929,dose-dependently reduced
same,enhanced potency compared to ADC-3,BCMA-positive NCI-H929; NCI-H929,~2 fold
same,EC50 order of magnitude,BCMA-positive NCI-H929,sub-nanomolar
same,activity against K562 cells,BCMA-negative K562,did not show activity
B9,effect on NCI-H929 cell viability,BCMA-positive NCI-H929,dose-dependently reduced
same,EC50 order of magnitude,BCMA-positive NCI-H929,single digit nanomolar
same,activity against K562 cells,BCMA-negative K562,did not show activity
B10,"EC50 of cell viability (CellTiter-Glo 2.0), NCI-H929 (BCMA-positive) cells, 120-hour assay",[1],1.93 nM
B11,tumor regression / elimination,NCI-H929 tumor xenograft; both regimens,induced dramatic and prolonged tumor regressions and eliminated all tumors in about two weeks after initial treatments
same,tumor growth,"NCI-H929 tumor xenograft; i.p., 2 and 4 mg/kg biw×4",significantly inhibited tumor growth
B12,"EC50 of cell viability (CellTiter-Glo 2.0), NCI-H929 (BCMA-positive) cells, 120-hour assay",[1],0.169 nM
